Source: article PMC6053526

What was measured:
Test in all cases: EMSA
Conditions in all cases: 5x buffer (3 uL in 14 uL): 20% glycerol, 5 mM MgCl2, 2.5 mM EDTA, 2.5 mM DTT, 250 mM NaCl, 50 mM Tris-HCl pH 7.5, 0.25 mg/ml poly(dI-dC); 0.5 ug protein; 10 min
[1] = target: GST-AtWRKY50-C (Arabidopsis thaliana) (UniProt Q8VWQ5)
[2] = target: T1, TGA2-His (Arabidopsis thaliana) (UniProt P43273)
T1 sequence: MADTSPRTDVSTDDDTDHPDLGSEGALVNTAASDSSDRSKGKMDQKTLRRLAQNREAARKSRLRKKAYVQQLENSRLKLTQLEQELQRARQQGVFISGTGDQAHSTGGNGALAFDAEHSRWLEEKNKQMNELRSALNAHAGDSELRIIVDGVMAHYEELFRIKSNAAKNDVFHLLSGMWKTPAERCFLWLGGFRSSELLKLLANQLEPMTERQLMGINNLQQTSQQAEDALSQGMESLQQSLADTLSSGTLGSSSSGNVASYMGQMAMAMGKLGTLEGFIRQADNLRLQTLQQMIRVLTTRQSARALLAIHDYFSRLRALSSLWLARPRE

[3] = target: GST-AtWRKY50-C;TGA2-His (Arabidopsis thaliana;Arabidopsis thaliana) (UniProt Q8VWQ5+P43273)
Chain of GST-AtWRKY50-C;TGA2-His (Arabidopsis thaliana;Arabidopsis thaliana) (Q8VWQ5 86-173, one chain of several): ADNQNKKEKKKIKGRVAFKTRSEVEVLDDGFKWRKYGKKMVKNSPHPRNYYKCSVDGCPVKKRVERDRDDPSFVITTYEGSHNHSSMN

Chain of GST-AtWRKY50-C (Arabidopsis thaliana) (Q8VWQ5 86-173): as the sequence (Q8VWQ5 86-173, one chain of several) above

Sequence | binding [1] | binding [2] | binding [3]
ATCGGATCCGGTGATCTATTGACTGTTTCTCTACGTCACTATTTTACTTACGTCATAGATGTGGCGGCATATA (double strand) [ABC] | binds | binds | –
CATCTATTGCGTAAGTAAAATAGTGACGTAGAGAAACAGTCAATAGATCACCGGATCCGAT (double strand) [ABCm2] | – | binds more weakly | –
TTTCTCTACGTCACTATTTTACTTACGTCATAGATGTGGCGGCATATATTCTTCAGGACTTTTCAGATCTAGGC (double strand) [BCD] | binds | binds | binds
CTCTACGCAACTATTTTACTTACGTCATAGATGTGGCGGCATATATTCTTCAGGACTTTTCAGATCTAGGC (double strand) [BCDm1] | – | binds | binds
